Experimental data reported in article PMC9093745, “Carbohydrate Metabolism in Bacteria: Alternative Specificities in ADP-Glucose Pyrophosphorylases Open Novel Metabolic Scenarios and Biotechnological Tools” (Frontiers in Microbiology, 2022).

Key:
purified protein [1] = substrate: Nc1ncnc2c1ncn2[C@@H]1O[C@H](COP(=O)(O)OP(=O)(O)OP(=O)(O)O)[C@@H](O)[C@H]1O; test: purified protein; details: 1 mM GlcN-1P co-substrate, Mg2+, pH 8.0, 37°C
purified protein [2] = substrate: N[C@H]1[C@@H](OP(=O)(O)O)O[C@H](CO)[C@@H](O)[C@@H]1O; test: purified protein; details: ATP co-substrate, Mg2+, pH 8.0, 37°C, no activator

B1: G. stearothermophilus ADP-Glc PPase GlgC/GlgD (Geobacillus stearothermophilus) (protein)
chain: MKKKCIAMLLAGGQGSRLRSLTTNIAKPAVPFGGKYRIIDFTLSNCTNSGIDTVGVLTQYQPLLLHSYIGIGSAWDLDRRNGGVTVLPPYSVSSGVKWYEGTANAVYQNINYIEQYNPDYVLVLSGDHIYKMDYQHMLDYHIAKQADVTISVIEVPWEEASRFGIMNTNEEMEIVEFAEKPAEPKSNLASMGIYIFNWPLLKQYLQIDNANPHSSHDFGKDVIPMLLREKKRPFAYPFEGYWKDVGTVKSLWEANMDLLDENNELDLFDRSWRIYSVNPNQPPQYISPEAEVSDSLVNEGCVVEGTVERSVLFQGVRIGKGAVVKESVIMPGAAVSEGAYVERAIVTPDSIIPPHSSVCPEDADDVVLVTAEWLKQSNEETARKDEA
- Km (purified protein [1]): 210 µM
- Km (purified protein [2]): 400 µM
